Data as given in patent US20140004122A1 (published 2014).
Blank lines part the entries; values can stand above or below the binder they belong to.

Assays:
[1] = target: T1, cynomolgus monkey PCSK9, V5- and 6xHis-tagged (cynomolgus monkey, UniProt A0A7N9D9N8 150-747); experiment: BIAcore SPR; antibody amine-coupled to CM5 chip, PCSK9 injected as analyte; pH 7.4
T1 construct: also called cPCSK9-V5-6xHIS; cPCSK9; not shown: V5 tag and 6xHis tag

[2] = target: T1, cynomolgus monkey PCSK9, V5- and …; experiment: KinExA solution equilibrium; free antibody captured on PCSK9-coated beads; cPCSK9 concentration adjusted to 50% active
Text: (§1) Equilibrium dissociation constant (KD) were obtained from nonlinear regression of the two sets of competition curves using a one-site homogeneous binding model. The KinExA® Pro software was employed in the analysis.

[3] = target: T1, cynomolgus monkey PCSK9, V5- and …; experiment: as above; remark: listed apart in the source
Text: as §1

[4] = target: T1, cynomolgus monkey PCSK9, V5- and …; experiment: BIAcore solution equilibrium; PCSK9 mixed with 21B12.1, free PCSK9 measured on immobilised 21B12
PCSK1 (R&D Systems) = target: T2, PCSK1 (R&D Systems) (UniProt P29120 111-753, limits assumed); experiment: competition ELISA: 11F1 (0.4 µg/mL) pre-incubated with soluble convertase, then binding to plate-captured biotinylated PCSK9
T2 sequence (looked up): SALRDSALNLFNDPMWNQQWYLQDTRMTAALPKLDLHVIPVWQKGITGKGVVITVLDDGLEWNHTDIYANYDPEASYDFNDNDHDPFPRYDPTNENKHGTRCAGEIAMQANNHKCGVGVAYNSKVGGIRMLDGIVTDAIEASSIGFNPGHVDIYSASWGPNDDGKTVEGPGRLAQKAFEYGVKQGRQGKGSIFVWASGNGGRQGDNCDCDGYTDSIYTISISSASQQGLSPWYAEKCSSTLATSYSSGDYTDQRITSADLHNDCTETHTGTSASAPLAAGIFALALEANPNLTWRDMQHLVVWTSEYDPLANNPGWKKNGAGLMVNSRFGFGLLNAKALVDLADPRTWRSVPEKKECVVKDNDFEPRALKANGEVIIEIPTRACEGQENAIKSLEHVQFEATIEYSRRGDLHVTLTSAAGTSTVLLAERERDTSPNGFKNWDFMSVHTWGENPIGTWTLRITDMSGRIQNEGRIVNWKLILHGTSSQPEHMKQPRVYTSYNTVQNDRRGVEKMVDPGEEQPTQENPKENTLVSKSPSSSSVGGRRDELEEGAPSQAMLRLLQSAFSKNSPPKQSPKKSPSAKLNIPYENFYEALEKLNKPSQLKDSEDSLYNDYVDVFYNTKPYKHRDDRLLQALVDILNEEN

PCSK7 (R&D Systems) = target: T3, PCSK7 (R&D Systems) (UniProt Q16549 142-667, limits assumed); experiment: as above
T3 sequence (looked up): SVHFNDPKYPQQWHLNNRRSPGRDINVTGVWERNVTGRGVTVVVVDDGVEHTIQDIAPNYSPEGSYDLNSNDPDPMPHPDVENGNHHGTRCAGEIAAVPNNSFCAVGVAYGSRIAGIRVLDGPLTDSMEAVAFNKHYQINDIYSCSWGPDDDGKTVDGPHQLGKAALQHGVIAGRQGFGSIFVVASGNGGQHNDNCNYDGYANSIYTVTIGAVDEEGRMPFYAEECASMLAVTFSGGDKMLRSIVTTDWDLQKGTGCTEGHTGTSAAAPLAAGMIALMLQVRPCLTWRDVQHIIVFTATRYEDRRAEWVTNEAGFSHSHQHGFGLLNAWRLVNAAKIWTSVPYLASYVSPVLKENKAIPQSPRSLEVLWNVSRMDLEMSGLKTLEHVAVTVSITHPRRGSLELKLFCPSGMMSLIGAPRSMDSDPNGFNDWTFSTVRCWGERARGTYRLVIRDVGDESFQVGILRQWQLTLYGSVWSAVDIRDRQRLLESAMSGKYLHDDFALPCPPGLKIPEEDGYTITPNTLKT

Kd [1]: 0.19 nM
Kd [2]: 0.002 nM
B1: 31H4 anti-PCSK9 human IgG4 antibody (from hybridoma) (antibody, V domains shown)
VH: EVQLVESGGGLVKPGGSLRLSCAASGFTFSSYSMNWVRQAPGKGLEWVSSISSSSSYISYADSVKGRFTISRDNAKNSLYLQMNSLRAEDTAVYFCARDYDFWSAYYDAFDVWGQGTMVTVSS
VL: QSVLTQPPSVSGAPGQRVTISCTGSSSNIGAGYDVHWYQQLPGTAPKLLISGNSNRPSGVPDRFSGSKSGTSASLAITGLQAEDEADYYCQSYDSSLSGSVFGGGTKLTVLQ
notes: also called 31H4.1; 31H4 IgG4

Kd [1]: 0.87 nM
Kd [3]: 0.016 nM
B2: 16F12 anti-PCSK9 human IgG4 antibody (antibody, V domains shown)
VH: QVHLVESGGGVVQPGRSLRLSCAASGFTFNSFGMHWVRQAPGKGLEWVALIWSDGSDEYYADSVKGRFTISRDNSKNTLYLQMNSLRAEDTAVYYCARAIAALYYYYGMDVWGQGTTVTVSS
VL: QSVLTQPPSVSAAPGQKVTISCSGSSSNIGNNFVSWYQQLPGTAPKLLIYDYNKRPSGIPDRFSGSKSGTSATLGITGLQTGDEADYYCGTWDSSLSAYVFGTGTRVTVLQ
notes: also called 16F12.1; 16F12, anti-PCSK9 huIgG4

Kd [1]: 0.36 nM
Kd [4]: 0.011 nM
B3: 21B12 anti-PCSK9 human IgG4 antibody (from hybridoma) (antibody, V domains shown)
VH: QVQLVQSGAEVKKPGASVKVSCKASGYTLTSYGISWVRQAPGQGLEWMGWVSFYNGNTNYAQKLQGRGTMTTDPSTSTAYMELRSLRSDDTAVYYCARGYGMDVWGQGTTVTVSS
VL: QSALTQPASVSGSPGQSITISCTGTSSDVGGYNSVSWYQQHPGKAPKLMIYEVSNRPSGVSNRFSGSKSGNTASLTISGLQAEDEADYYCNSYTSTSMVFGGGTKLTVLQ
notes: also called 21B12.1; 21B12 IgG4

binding result (PCSK1 (R&D Systems)): no binding (tested: 0 to 20 µg/mL)
binding result (PCSK7 (R&D Systems)): no binding (tested: 0 to 20 µg/mL)
B4: 11F1 anti-PCSK9 antibody (antibody, V domains shown)
VH: EVQLVESGGGLVQPGGSLRLSCAASGFTFSNYWMSWVRQAPGKGLEWVASIKQDGSEKYYVDSVKGRFAISRDNAKNSLFLQMNSLRAEDTAVYYCARDLVLMVYDIDYYYYGMDVWGQGTTVTVSS
VL: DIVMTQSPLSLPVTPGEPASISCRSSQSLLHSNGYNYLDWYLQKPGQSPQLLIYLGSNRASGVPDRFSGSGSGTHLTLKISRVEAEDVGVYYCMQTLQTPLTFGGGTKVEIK
notes: It was detected with anti-human Fc, so it is a whole human antibody
